Experiments:
PRC1ΔPh = PRC1ΔPh (UniProt P35820;P26017;Q9VB08 1-1601;1-390;1-435); experiment: filter binding; 12 mM Hepes pH 7.9, 0.12 mM EDTA, 120 nM KCl (so in the source); probably mM), 1 mM DTT, 0.01% NP40, 12% glycerol, 0.01 nM probe, 30 min at 30 °C; EMSA plus 50 ng/uL BSA; details: protein: recombinant; tags: FLAG; copies: 1;1;1; label: Cy5 or Cy3 on DNA R; 32P at unlabelled 5' ends; blunt
PRC2 = PRC2 (UniProt P42124;Q24338;Q9NJG9;Q24572 1-760;1-425;1-900;1-430); experiment: as above; details: protein: recombinant; tags: 6xHis-E(Z); FLAG on Esc or Su(Z)12; copies: 1;1;1;1; label: Cy5 or Cy3 on DNA R; 32P at unlabelled 5' ends; blunt

PRC1ΔPh, sequence (P35820 whole entry, stated change not applied, chain 1 of 3): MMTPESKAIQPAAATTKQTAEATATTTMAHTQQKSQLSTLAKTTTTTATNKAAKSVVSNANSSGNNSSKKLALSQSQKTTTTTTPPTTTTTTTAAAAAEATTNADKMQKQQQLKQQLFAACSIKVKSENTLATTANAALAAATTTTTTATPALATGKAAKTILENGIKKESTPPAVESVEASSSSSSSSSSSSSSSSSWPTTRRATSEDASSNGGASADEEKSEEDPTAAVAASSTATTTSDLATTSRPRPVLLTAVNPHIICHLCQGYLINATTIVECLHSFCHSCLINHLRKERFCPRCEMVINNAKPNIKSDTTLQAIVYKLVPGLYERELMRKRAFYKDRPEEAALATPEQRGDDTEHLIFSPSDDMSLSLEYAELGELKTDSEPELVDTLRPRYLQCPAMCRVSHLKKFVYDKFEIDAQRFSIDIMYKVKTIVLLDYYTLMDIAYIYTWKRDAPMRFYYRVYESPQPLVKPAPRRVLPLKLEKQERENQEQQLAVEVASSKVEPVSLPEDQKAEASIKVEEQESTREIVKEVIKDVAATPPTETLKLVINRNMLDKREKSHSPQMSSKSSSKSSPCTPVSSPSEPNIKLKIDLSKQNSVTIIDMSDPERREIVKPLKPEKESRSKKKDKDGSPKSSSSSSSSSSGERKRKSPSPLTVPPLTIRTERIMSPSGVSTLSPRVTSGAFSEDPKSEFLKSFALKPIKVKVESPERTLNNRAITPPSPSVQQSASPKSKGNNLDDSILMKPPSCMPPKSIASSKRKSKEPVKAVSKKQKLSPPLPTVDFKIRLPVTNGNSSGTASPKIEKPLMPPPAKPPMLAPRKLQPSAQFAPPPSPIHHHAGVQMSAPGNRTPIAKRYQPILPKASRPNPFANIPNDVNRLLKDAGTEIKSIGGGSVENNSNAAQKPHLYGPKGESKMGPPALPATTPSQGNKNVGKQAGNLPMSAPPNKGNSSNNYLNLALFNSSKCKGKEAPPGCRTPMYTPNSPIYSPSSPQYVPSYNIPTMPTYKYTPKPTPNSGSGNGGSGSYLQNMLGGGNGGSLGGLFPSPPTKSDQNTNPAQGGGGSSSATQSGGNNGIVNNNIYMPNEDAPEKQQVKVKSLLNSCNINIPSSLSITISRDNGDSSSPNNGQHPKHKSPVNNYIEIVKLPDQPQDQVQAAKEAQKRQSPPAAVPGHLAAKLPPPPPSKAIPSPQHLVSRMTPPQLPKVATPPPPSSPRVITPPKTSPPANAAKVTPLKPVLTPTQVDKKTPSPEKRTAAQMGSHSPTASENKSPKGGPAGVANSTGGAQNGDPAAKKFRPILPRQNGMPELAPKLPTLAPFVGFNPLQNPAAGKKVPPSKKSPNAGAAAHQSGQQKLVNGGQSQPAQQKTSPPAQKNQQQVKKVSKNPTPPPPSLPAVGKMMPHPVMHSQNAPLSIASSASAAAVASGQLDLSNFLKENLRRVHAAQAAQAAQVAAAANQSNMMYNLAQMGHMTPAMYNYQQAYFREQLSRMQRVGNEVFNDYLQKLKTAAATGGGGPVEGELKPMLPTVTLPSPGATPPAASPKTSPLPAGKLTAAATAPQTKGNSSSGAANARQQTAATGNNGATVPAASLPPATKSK
PRC1ΔPh, sequence (P26017 whole entry, stated change not applied, chain 2 of 3): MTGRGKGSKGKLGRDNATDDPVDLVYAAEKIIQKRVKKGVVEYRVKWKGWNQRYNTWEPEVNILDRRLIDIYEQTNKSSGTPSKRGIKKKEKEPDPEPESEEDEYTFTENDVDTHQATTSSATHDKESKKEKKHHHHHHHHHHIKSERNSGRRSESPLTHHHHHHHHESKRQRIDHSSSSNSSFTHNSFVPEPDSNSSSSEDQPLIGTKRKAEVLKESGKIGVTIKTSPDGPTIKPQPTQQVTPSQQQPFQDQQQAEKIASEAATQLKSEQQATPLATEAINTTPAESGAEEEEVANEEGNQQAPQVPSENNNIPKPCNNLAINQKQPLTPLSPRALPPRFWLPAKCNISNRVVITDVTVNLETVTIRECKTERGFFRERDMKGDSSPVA
PRC1ΔPh, sequence (Q9VB08 whole entry, stated change not applied, chain 3 of 3): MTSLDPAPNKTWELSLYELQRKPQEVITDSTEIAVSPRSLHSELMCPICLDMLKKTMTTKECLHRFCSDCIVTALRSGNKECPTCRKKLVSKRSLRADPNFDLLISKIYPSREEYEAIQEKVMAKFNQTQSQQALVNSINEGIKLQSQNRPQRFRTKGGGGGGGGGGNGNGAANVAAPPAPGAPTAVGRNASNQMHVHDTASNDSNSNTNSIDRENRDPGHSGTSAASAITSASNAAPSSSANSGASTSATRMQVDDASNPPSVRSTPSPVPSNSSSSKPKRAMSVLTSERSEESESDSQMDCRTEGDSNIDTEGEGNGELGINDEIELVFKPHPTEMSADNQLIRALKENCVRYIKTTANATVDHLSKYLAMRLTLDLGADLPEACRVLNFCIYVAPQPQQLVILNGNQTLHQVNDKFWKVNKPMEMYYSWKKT

B1: vg PRE dsDNA (dsDNA)
DNA 1: CGGGTTGTCAAGAATTTTAACGGCCATTTCTGTGAGTGTGTGCGAGCTGCCAAGTGTGTGTGAGTGTGTTTGTGACAAACGCAAGCTCATGTAAGTGCTC
DNA 2: GAGCACTTACATGAGCTTGCGTTTGTCACAAACACACTCACACACACTTGGCAGCTCGCACACACTCACAGAAATGGCCGTTAAAATTCTTGACAACCCG
Kd (PRC1ΔPh): 0.164 nM | Kd (PRC2): 6.44 nM

From article PMC7156742, “RNA-DNA strand exchange by the Drosophila Polycomb complex PRC2”
